Assay results: US8497072 (AbbVie / Abbott, dated 2013)

Legend:
Aβ(1-42) globulomer [1] = molecular target: T1, Aβ(1-42) globulomer (human, UniProt P05067 672-713); assay: sandwich ELISA, reference Aβ(1-42) monomer
T1 construct: The definitions give n=12-14 subunits for late assembly forms; no subunit number is stated for the preparation used; also called A-beta (1-42) globulomer; Aβ(1-42) globular oligomer

Aβ(1-40) monomer [2] = molecular target: T2, Aβ(1-40) monomer (human); assay: sandwich ELISA, 6G1 capture, antigen titrated, biotinylated 8F5 detection
T2 construct: also called Aβ40; Aβ(1-40) monomer HFIP pretreated
Method: (§1) Two types of experiments were performed. […] This experiment is described in Example 2.1 below.
(§2) Add 10 μl Aβ(1-42) monomer HFIP-pretreated standard stock solution to 44041 PBST+0.5% BSA 10 μg/ml Add 50 μl 10 μg/ml Aβ(1-42) monomer HFIP pretreated standard solution to 495041 PBST+0.5% BSA=100 ng/ml c) Aβ(1-42) monomer in NH4OH Add 5 μl Aβ(1-42) monomer in NH4OH standard stock solution to 995 μl PBST+0.5% BSA=[…] Add 50 μl 10 μg/ml Aβ(1-42) monomer in NH4OH standard solution to 495041 PEST+[…]=100 ng/ml d) Aβ(1-40) monomer HFIP-pretreated Add 1 μl Aβ(1-40) monomer HFIP pretreated standard stock solution to 49 μl PBST+0.5% BSA=430 μg/ml Add 10 μl 430 μg/ml Aβ(1-40) monomer HFIP pretreated standard solution to […] PEST+0.5% BSA=10 μg/ml Add 50 μl 10 μg/ml Aβ(1-40) monomer HFIP pretreated standard solution to 4950 μl PBST+0.5% BSA 100 ng/ml Standard Curves:
(§3) 1. Apply 100 μl anti-Aβ mMAb 6G1 solution per well and incubate overnight at 4° C. 2. Discard the antibody solution and wash the wells with 250 μl PBST-Buffer three times. 3. Add 260 μl block solution per well and incubate 2 h at room temperature. 4. Discard the block solution and wash the wells with 250 μl PBST-Buffer three times. 5. After preparation of standards, apply 100 μl per well of standards to the plate. Incubate 2 h at room temperature and overnight at 4° C. 6. Discard the standard solution and wash the wells with 250 μl PBST-Buffer three times. 7. […] 8. Discard the antibody solution and wash the wells with 250 μl PBST-Buffer three times. 9. Add 200 μl label solution per well and incubate 1 h at room temperature. 10. Discard the label solution and wash the wells with 250 μl PBST-Buffer three times. 11. Add 100 μl of TMB solution to each well and incubate at room temperature (5-15 min). 12.

[3] = molecular target: T3, Aβ(1-42) monomer, HFIP pretreated (human); assay: as above
T3 construct: also called Aβ(1-42) monomer in HFIP; Aβ(1-42) monomer HFIP treated
Method: as §1, §2, §3

[4] = molecular target: Aβ(1-42) monomer in NH4OH (human); assay: as above
Method: as §1, §2, §3

Aβ(1-42) globulomer [5] = molecular target: T1, Aβ(1-42) globulomer; assay: as above
Method: as §1, §2, §3

Aβ(1-42) globulomer [6] = molecular target: T1, Aβ(1-42) globulomer; assay: dot blot, reference Aβ(1-40) monomer
Method: (§4) In a second example, described in Example 2.2 below, the oligomer selectivity versus Aβ(1-42) monomer and Aβ(1-40) monomer was examined by dot blot immunoassay.
(§5) Serial dilutions of Aβ(1-42) globulomer, Aβ1-42 monomer and Aβ1-40 monomer were made in the range from 100 pmol/μl-0.01 pmol/μl in PBS. Of each sample, 1 μl was dotted onto a nitrocellulose membrane. […] The detection signal was analyzed in its intensity (reflective density=RD) via a densitometer (GS 800, Biorad, Hercules, Calif., USA) at an antigen concentration of 10 pmol.

Aβ(1-40) monomer [7] = molecular target: T2, Aβ(1-40) monomer; assay: dot blot, 10 pmol antigen on nitrocellulose, 0.2 µg/ml antibody, densitometry
Method: as §4, §5

Aβ(1-42) globulomer [8] = molecular target: T1, Aβ(1-42) globulomer; assay: as above
Method: as §4, §5

[9] = molecular target: T4, Aβ1-42 monomer (dot blot) (human); assay: as above
T4 construct: also called Aβ42 monomer
Method: as §4, §5

Aβ(1-40) monomer [10] = molecular target: T2, Aβ(1-40) monomer; assay: sandwich ELISA, EC50 of this antigen divided by EC50 of Aβ(1-42) globulomer
[11] = molecular target: T3, Aβ(1-42) monomer, HFIP pretreated; assay: as above
[12] = molecular target: Aβ(1-42) monomer in NH4OH (human); assay: as above
Aβ(1-42) globulomer [13] = molecular target: T1, Aβ(1-42) globulomer; assay: dot blot, reference Aβ(1-42) monomer
Method: as §4, §5

[14] = molecular target: T5, endogenous Aβ(1-42) in human CSF (human); assay: IP from AD patient CSF, urea-PAGE Western blot, share of Aβ42 in recovered Aβ40+42
T5 construct: Endogenous peptide in cerebrospinal fluid of MCI and AD patients; it was quantified after elution by ELISA or urea-PAGE Western blot; also called Aβ42; Amyloid β(1-42)
Method: Immunoprecipitation of Abeta Species from Human AD-CSF: 250 μL aliquot of the prepared CSF sample were added to 25 μL anti-Aβ-Dynabeads suspension. Immunoprecipitation occurred under stirring at 6° C. for 16 hours. Subsequent washing of the beads was performed 3 times 5 min. with 1 mL PBS/0.1% (w/v) BSA and finally once 3 min. with 1 mL 10 mM Tris/HCL pH 7.5 buffer. During the washing procedure, the supernatant was carefully removed while the dynabeads were immobilized at the side of the reaction vial with a magnetic separator stand (MSS). The residual supernatant was thoroughly removed after the final washing step. […] After cooling to room temperature, the dynabeads were immobilized at the side of the reaction vial with a magnetic separator stand (MSS), and the supernatant was transferred to another Eppendorff tube (IP eluate).
15 μL IP eluate aliquots of the immunoprecipitated samples were loaded onto the 8 M Urea PAGE. Electrophoresis was performed at 100 V (15 min) and continued at 60 V. The electrophoresis was stopped when the running front of the blue sample loading dye was still 0.5 cm away from the end of the gel.

Aβ(1-40) monomer [15] = molecular target: T2, Aβ(1-40) monomer; assay: dot blot, 10 pmol antigen on nitrocellulose, densitometry
Method: as §4, §5

Aβ(1-42) globulomer [16] = molecular target: T1, Aβ(1-42) globulomer; assay: as above
Method: as §4, §5

[17] = molecular target: T4, Aβ1-42 monomer (dot blot); assay: as above
Method: as §4, §5

T2 sequence (peptide, as listed by the source): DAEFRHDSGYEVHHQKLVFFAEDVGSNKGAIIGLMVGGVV
Aβ(1-42) monomer in NH4OH (human), sequence (peptide, as listed by the source): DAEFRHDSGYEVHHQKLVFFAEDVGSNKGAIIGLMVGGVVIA

B1: monoclonal antibody 8F5 (antibody, V domains shown)
VH: EVQLVESGGGLVQPGGSLKLSCAASGFTFSSYGMSWVRQTPDKRLELVASINSNGGSTYYPDSVKGRFTISRDNAKNTLYLQMSSLKSEDTAMYYCASGDYWGQGSTLTVSS
VL: DVVMTQTPLSLPVSLGDQASISCRSSQSLVYSNGDTYLHWYLQKPGQSPKLLIYKVSNRFSGVPDRFSGSGSGTDFTLKISRVEAEDLGVYFCSQSTHVPWTFGGGTKLEIKR
notes: Murine monoclonal antibody from a hybridoma (Balb/c mice immunized with Aβ(1-42) globulomer); Biotinylated with Sulfo-NHS-Biotin for the sandwich ELISA; coupled to Sepharose or Dynabeads for the immunoprecipitations; also called mMAb 8F5; anti-Aβ mouse Mab 8F5
- selectivity for Aβ(1-42) globulomer versus Aβ(1-42) monomer (Aβ(1-42) globulomer [1]): ~10 fold
- Log EC50 (Aβ(1-40) monomer [2]): 2.83
- Log EC50 [3]: 2.75
- Log EC50 [4]: 3
- Log EC50 (Aβ(1-42) globulomer [5]): 1.96
- Ratio RD Aβ(1-42) globulomer/RD Aβ(1-40) monomer (Aβ(1-42) globulomer [6]): 16.9
- Reflective Density (RD) [10 pmol] (Aβ(1-40) monomer [7]): 0.1 RD
- Reflective Density (RD) [10 pmol] (Aβ(1-42) globulomer [8]): 1.6 RD
- Reflective Density (RD) [10 pmol] [9]: 1.1 RD
- selectivity factor (EC50 ratio against Aβ(1-42) globulomer) (Aβ(1-40) monomer [10]): 7.4 fold
- selectivity factor (EC50 ratio against Aβ(1-42) globulomer) [11]: 6.1 fold
- selectivity factor (EC50 ratio against Aβ(1-42) globulomer) [12]: 11.1 fold
- Ratio RD Aβ(1-42) globulomer/RD Aβ(1-42) monomer (Aβ(1-42) globulomer [13]): 1.4
- Ratio Aβ42/Aβ40+42 × 100% [14]: 8.1%

B2: monoclonal antibody 8C5 (antibody, V domains shown)
VH: EVQLVESGGGLVQPGGSLKLSCTASGFTFSSYGMSWVRQTPDKRLELVASIKNNGGSTYYPDSLKGRFTISRDNAKNTLYLQMSSLKSEDTAMYYCASGDYWGQGTTLTVSS
VL: DVVMTQTPLSLPVSLGDQASISCRSSQSLVHSNGDTFLHWYLQKPGQSPKLLIYKVSNRFSGVPDRFSGSGSGTDFTLKISRVEAEDLGIYFCSQSIHVPWTFGGGTKLEIKR
notes: Murine monoclonal antibody from a hybridoma; Biotinylated for the sandwich ELISA; also called mMab 8C5; 5C5
- Reflective Density (RD) [10 pmol] (Aβ(1-40) monomer [15]): 0.3 RD
- Reflective Density (RD) [10 pmol] (Aβ(1-42) globulomer [16]): 1.3 RD
- Reflective Density (RD) [10 pmol] [17]: 0.2 RD
- Ratio RD Aβ(1-42) globulomer/RD Aβ(1-40) monomer (Aβ(1-42) globulomer [6]): 4.1
- selectivity factor (EC50 ratio against Aβ(1-42) globulomer) (Aβ(1-40) monomer [10]): > 100 fold
- selectivity factor (EC50 ratio against Aβ(1-42) globulomer) [11]: 4.1 fold
- selectivity factor (EC50 ratio against Aβ(1-42) globulomer) [12]: > 100 fold
- Ratio RD Aβ(1-42) globulomer/RD Aβ(1-42) monomer (Aβ(1-42) globulomer [13]): 5.1
- Ratio Aβ42/Aβ40+42 × 100% [14]: 14.9%
